Measured values taken from PMC3530171 (Cell, 2012).

Target: recombinant His-Mdm2 (UniProt P23804 1-489)
Test: pull-down

Chain of recombinant His-Mdm2 (P23804 whole entry): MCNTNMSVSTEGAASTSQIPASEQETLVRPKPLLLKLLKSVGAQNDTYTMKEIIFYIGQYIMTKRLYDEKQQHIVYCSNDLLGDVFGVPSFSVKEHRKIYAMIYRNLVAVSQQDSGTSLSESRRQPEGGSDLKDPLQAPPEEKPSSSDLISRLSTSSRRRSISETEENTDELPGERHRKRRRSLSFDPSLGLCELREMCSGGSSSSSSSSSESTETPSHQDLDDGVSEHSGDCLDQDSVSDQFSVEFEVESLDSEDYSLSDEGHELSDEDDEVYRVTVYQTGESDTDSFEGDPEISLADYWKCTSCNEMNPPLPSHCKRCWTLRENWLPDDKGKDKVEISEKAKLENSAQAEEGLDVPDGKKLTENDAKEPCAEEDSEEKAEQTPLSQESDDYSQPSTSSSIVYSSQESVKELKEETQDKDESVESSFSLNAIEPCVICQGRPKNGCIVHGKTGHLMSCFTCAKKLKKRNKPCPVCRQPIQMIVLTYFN

B1: recombinant GST-EF1α (natural protein)
chain: GKEKTHINIVVIGHVDSGKSTTTGHLIYKCGGIDKRTIEKFEKEAAEMGKGSFKYAWVLDKLKAERERGITIDISLWKFETSKYYVTIIDAPGHRDFIKNMITGTSQADCAVLIVAAGVGEFEAGISKNGQTREHALLAYTLGVKQLIVGVNKMDSTEPPYSQKRYEEIVKEVSTYIKKIGYNPDTVAFVPISGWNGDNMLEPSANMPWFKGWKVTRKDGNASGTTLLEALDCILPPTRPTDKPLRLPLQDVYKIGGIGTVPVGRVETGVLKPGMVVTFAPVNVTTEVKSVEMHHEALSEALPGDNVGFNVKNVSVKDVRRGNVAGDSKNDPPMEAAGFTAQVIILNHPGQISAGYAPVLDCHTAHIACKFAELKEKIDRRSGKKLEDGPKFLKSGDAAIVDMVPGKPMCVESFSDYPPLGRFAVRDMRQTVAVGVIKAVDKKAAGAGKVTKSAQKAQKAK
  stoichiometry N: ~1
